Laboratory results as given in the DeepSol protein solubility set.

Assay: soluble on expression in E. coli; label from the status in PepcDB or PDB records

| Sequence | soluble on expression in E. coli |
| --- | --- |
| MIELPVVPSASDRKSKPDWLRVKLPIGKEYTKLRALVDEHKLHTICQSGNCPNMGECWGAGTATFMILGNVCTRSCSFCAVATGRPTEYDIDEPKRVAEAVRLMNVKHCVITSVNRDELKDKGAEVWYQTVVRVKEESPQTTIETLIPDVKSDWASLERMISGGQEVVSHNMETVERLYRRVRPQAKYSRSLEEIQRIKAFGKRTKSGIMLGLGETKDEVLKAMDDLVAHGLDVLTLGQYLQPTKMHLEVAEFIHPDQFAEYKEIGLSKGLNYVESGPLVRSSYHAEKHI | not soluble |
| MGSDKIHHHHHHMAVSIEGSPPCSYFMCLQLYSQYIRYNHFMRLNDEQQMNEKHSDHADKTKMPSSETLKQVCQPEERVLGRADDGSVMEFMLQTEHGNTYLCRFPPGFISHAAIQLCTEEIWYFIQGEGVFWIKHEGIERQVPFNAGTALHAPCGGAMQFRNNGHLEAVAHVVTMPPWPGSDGAKLTKGPWESV | not soluble |
| DGQLTNLPGGIDEYLKRREALAAQNQSGVVNLGGNNEAASAPVPEKKLSSQEQREITKQMNALERKMGKLDPKIAKINEEMAAAAQRVDTAELTRLDAELNELTAQREGLEMEWMDLGERLES | soluble |
| MPAISMFYGIVIYLYFYDDERHKIPHIHAKYQGEDASVSIANGEILAGDIPLSKLRLVQAWIEIHRDALMADWALAVNGQPPFAIEPLRLEHHHHHH | not soluble |
| MKLSCVIVSHNMKNYIGRCIDSVRTALADIRSLVGEAEIIVVDRGSTDGTANAARTAYADVTIVDVPFDAGWATAANKGACAATGETLLFVSPEVELLSGGLPRLLEHLETNPACAIAGGAVVSTSGALLHGPARFPGLLGKLAALTGLGSRFPRTMLDWTRYGGRNLDLPLEVDSVSFDYAVVKAAAFCKLGRFDARFHTAFADTDLCRRASRTMLPRPTVAFVPQARARAQDNFVLRDEVQAFDLHGTAVVRGRVRCEMLYVWKNYCILTSLANTTLELVGQACRYAMGLLPVIGCDKTARHSAAVLKETAQAALDTQLGSQYPTTPWLEHHHHHH | not soluble |
| MNLTIIEFESNVLRDNPLNDPYKRRVGIIYPKDYEGRPILIYLSGYLSSSLTQINYNPLGEDMVSKVERLSNEGKMKGSVIVLPDMFTKVGGNQYINSSAVGMYEDFLVKELIPFLKDKFKSDKIGIFGHSSGGYGALILGMKYPNTIKAIADHAGDAYFEYVYLPTFPRAIEQLRRFKTPEEWLENYWKKENKQHREDLNTLNVVGMSAFYSPNNEKIELPFDLETGEILEDVWKKWLEKDPVRMVDKYADNLKMLKFIFIDVGKKDEFNIQYGSRTLHKKLQKYGINHYYEEFNDGHLHTNYRYDISLSLLEKKLTSE | not soluble |
| MEEKLVTLAILTYTKAQILKNVLENEGIETYIHNVNQIQPVVSSGVRLRIKESDLPRALKITESSAWLAESIVGEKTPKVEHRTKKVLIPVDFSNYSMKACEFGFNFAKSFDAEVILLHVYFTPIYASSLPYGDVFNYQISDEETVKNVLHKVHDDLNTLSEKIKQKVASGEFPDVKYTCVLREGIPEEEILRYNKEHRPRIIIMGTRGKNQKDIDLIGSVTAEIIERSHTTVLAIPENTPFNRFNEVKRIAFMTNFDQRDLIAFDSFINGLSPFHFSVSLIHLSDVKDTWNEIKLAGIKDYFQKQYPDLEIHYDVVMSNDFLNSLDNYIKTNQIDIITLTSYKRNIFSRLFNPGIARKMIFHSDTPLLVING | not soluble |
| QDSTSDLIPAPPLSKVPLQQNFQDNQFHGKWYQVGRAGNAALREDKDPQKMTAQIYELKEDKSYNVTAVRFRKKKCDYATMTFVPGSQPGEFTLGNIKSYPGLTSYLVRVVSTNYNQHAMVFFKKVSQNREYFSITLLGRTKELASELKENFIRFSKSLGLPENHIVFPVPIDQCIDGSAHHHHHH | soluble |
| MDPKRWWEKQEDIVISKDQIPRCDNKEVKMFGGMLLACDDVVTEDQLSWAPGFTDLPKKRGKKKDLNKFDAGILPGTSKQNNPMDPQVRLLLEASWEAMVDAGINPRGLRGSQIGDFDECATPGTSGTQKQNPVTEMGCIMSDTVPSMFSNRISYTFDLQGPSHSADKINFSTKKRMTKLRNRNSIV | not soluble |
| MGHHHHHHSHMAVGTSALSKEPWWTLPENFHSPMVFHMEEDQEELIFGLDDTYLRCIELHSHTLIQLERCFTATGQTRVTVVGPPMAKQWLLLMFHCVGSQDSKCHARGLKMLERVRSQPLTNDDLVTSVSLPPYTGD | not soluble |
| MTVQEISRVIDGKRVIVKKPELLIPAGNLEKLKVAIHYGADAVYLGGQEFGLRSNAGNFTLEEMAEGVEFAKKYGAKIYVTTNIFAHNENMDGLEEYLKGIEKAGVTGIIVADPLIIETCKRVAPSVEVHLSTQQSLSNWKAAQYWKEEGLHRLVLAREASYEEMKEIKEKVDIEIEAFVHGAMCIAYSGRCTLSNHMTARDSNRGGCCQSCRWDYDLVQTVSQHKDAKELPLFQEEDAHFAMSPKDLNLILSIPKMIEIGIDSLKVEGRMKSIHYVATVATVYRKVIDAYCADPDNFEFKQEWLDELDKCANRDTAPAFFEGVPGHQEQMFGNHSKKTTYDFAGLVLDYNEETGIVTIEQRNHFKPGHEVEFFGPEIENFTQTVEKIWDEDGNELDAARHPLQIVKFKVDQPVYVNNMMRKSILQ | not soluble |
| MGHHHHHHSHMIFLSTLFWYNKLMNKSTFSLNDTAWVDFYQLQNPRQNENYTFPAIIICPGGGYQHISQRESDPLALAFLAQGYQVLLLNYTVMNKGTNYNFLSQNLEEVQAVFSLIHQNHKEWQINPEQVFLLGCSAGGHLAAWYGNSEQIHRPKGVILCYPVTSFTFGWPSDLSHFNFEIENISEYNISEKVTSSTPPTFIWHTADDEGVPIYNSLKYCDRLSKHQVPFEAHFFESGPHGVSLANRTTAPSDAYCLPSVHRWVSWASDWLERQIKN | soluble |
| MSMSDIGGKDRLNDEKRVTVRLSRSMVEEMEDLVNRDEYESVSDLVRKAVSALLESRGVNSDFLPVQIMVPKNLIEKLGKDSTKPVNLSLDEFSSLILDRINGLTVRETIKKIVHEENIK | not soluble |
| MASSKIVPLYQSMLNDLIRQIESGELVENAKLPSEQKLGEKYDVSRITVRRALAELENKDYIYKKQGQGSFVKNKEDIDLGIHYLDVRKAIENMNAVPEIRLEAFKLIVDGSESDVRKVMEINSDVYLYYLRYMVYADHRPVFHEQVYLPFERFPRIFNSEIVNNDLMPFLVKKYGLKASFFSHTQPALITKSNRKEFDLNVGDPMIYMQTRGIEEKEIIYYRKAAVVGNLIMYIVG | not soluble |
| MDSIIELRHLKTLLALEETGSVSLAAKRVFLTQSALSHQIRMLENHYGTPLFERKSTPLRFTPVGERLLRLAHELIPQVAVAEWDLARITEGEAGELRIAVECHTCFDWLMPAMGEFRPMWPQVELDIVSGFQADPVGLLLQHRADLAIVSEAEKQNGISFQPLFAYEMVGICAPDHPLAAKNVWTAEDFIGETLITYPVPDEMLDLPKKILIPKNINPPRRHSELTIAIIQLVASRRGIAALPYWTVMPYLEKGYVVHRQITADGLQSKLYAAIRTEDTDKSYLNNFCQIIRERGFADLPGLSELEPV | not soluble |
| MTHEYQDLITIFNDTFLEQFNTTLELGGDEPIYLPADDEHPHHRIIFARGFYASALHEIAHWCVAGPERRLMEDFGYWYEPDGRTEAVQAEFEKVEIRPQAYEWILATSAGFPFTVSCDNLHGDFEPDRLGFMQKVHKEVLGILEAGLPPRVKMLSDALRAFYQTKPLEASDFSVK | not soluble |
| MSLAEVAEVSEQDFGEILAQTRQFVRTAVVPREQEILDGDRVPDDLRDQARKMGLFGYAIPQQWGGLGLNLMQDVELAMELGYTSLALRSMFGTNNGIAGQVLVGFGTEAQKARWLEPMAAGDVVASFALTEPGAGSNPAGLRTKAVADGDNWVISGQKRFITNAPVADLFVVFARTRPADDQGPGIAVFLVPADAAGVQVGAKDAKMGQEGAWTADVSFDDVRVGGDALIGGSENIGYRAAMTSLARGRVHIAALAVGAAQRALDESVSYAATATQGGTPIGNFQLVQAMLADQQTEVLAGRALVREAARLWVTGEDRRVAPSAAKLYCTEMAGRVADLAVQVHGGSGYMRGVPVERIYRDVRLLRLYEGTSEIQRLIIGSNLVKAAQREGHHHHHH | soluble |
| MSLRLDKFIAENVGLTRSQATKAIRQSAVKINGEIVKSGSVQISQEDEIYFEDELLTWIEEGQYFMLNKPQGCVCSNDDGDYPTIYQFFDYPLAGKLHSAGRLDVDTTGLVLLTDDGQWSHRITSPKHHCEKTYLVTLADPVEENYSAACAEGILLRGEKEPTKPAKLEILDDYNVNLTISEGRYHQVKRMFAALGNKVVGLHRWKIGDVVLDESLEEGEYRPLTQSEIEKLVEGGSHHHHHH | soluble |
| MGHHHHHHSHKPIKVEKTVTINKPADELYRYWHNFENLPTFMKHLKSVKVYNEKRSHWIANAPLGNSVEWDADILEDRENEFISWASAEGADVENSGFVRFQKAPGDVPGQAASRLRGTEVKVVLEYNLPGGALAAVVAKLFGEEP | not soluble |
| MGSDKIHHHHHHMAILNISELEQVEKFRQLQLTLRDRWKTIESFDNSEADILIIPSLSIDQRELQKIEGCEHYEERLLFSLIRLQNPRTRLIYVTSVPLHPSIIDYYLQLLPGIPFSHARNRLLLLSTYDSSLKPLSQKILERPRLLERIHQSLRLDKSFMICYNSSHWEGELSLKLGVPLYAAAPDLQIWGTKSGSRQIFKGSGVPHPDGSEKIWNHTDLAEATSDLWERQPTLKRVVVKLNEGISGEGNALLDLRPIENLAPGIGTHAQRVAAISDRFSTMRFQAKLETWDNFSGRIPELGAIAEAFVEGEIKRSPSVQGRITPTGEVEILSTHDQILGGPDGQIYLGCRFPADESYRLQLQQLGLQVGRTLAEKGTLERFGVDFIAVDKGNGEWDIQAIEINLRKGGTTHPFMTLKLLTNGRYDLSTGLFYSQQGRPKYYIATDNLQKERYQGLLPNDLMDIIAHHRLHFDSGTETGTVFHLMGCLSQFGKLGLTSIGDSPQQAQDIYNKVVKVLDEETRSENRDFSAFSDYSFPVAWDEYR | not soluble |
| MDEDVLPGEVLAIEGIFMACGLNEPEYLYHPLLSPIKLYITGLMRDKESLFEAMLANVRFHSTTGIDQLGLSMLQVSGDGNMNWGRALAILTFGSFVAQKLSNEPHLRDFALAVLPAYAYEAIGPQWFRARGGWRGLKAYCTQVLTDDDDLEHHHHHH | soluble |
| MADDLNAGPKANREFKNSVFTLLFNEEEAIRDISGAVGAMLGKEISPNTPIKKTTLQNALLGGKLNDLSFVLDDKLIVLIEHQSTINKNMPLRMLHYICEIYNHLYEKKDLYRKKKILIPKPVFIVLYNGEEDIKDFEEYLLSDLFKDFDISKEQPYLELRVQVRNINKGHSAEIVKQSPLLLDYVAFVEEVREVNKEEGMTPELAMEKAIENCIKKGILTVFLTRHKEEVMKMLVAEWDYDLDREVARDEGREEGREEGRTEETANNIKDLYRIGVSIETIAKAFGLSEHDVKDILGL | soluble |
| AVHITLDPDTANPWLILSEDRRQVRLGDTQQSIPGNEERFDSYPMVLGAQHFHSGKHYWEVDVTGKEAWDLGVCRDSVRRKGHFLLSSKSGFWTIWLWNKQKYEAGTYPQTPLHLQVPPCQVGIFLDYEAGMVSFYNITDHGSLIYSFSECAFTGPLRPFFSPGFNDGGKNTAPLTLCPLNIGSQG | not soluble |
| SHSLGWIFGMPCNQRSSTKASCEEVFDPTEESYLNIETSL | soluble |
